Source: US20190218277A1 (Chugai, published 2019)
Where two headings read alike, the source gives them in different places.

How the values were obtained:
human FcγRIIIa (158V) = target: T1, human FcγRIIIa (158V) (human, UniProt P08637 17-208); test: SPR (Biacore T200, pH 7.4, 25 °C): His-tagged FcγR captured by anti-His antibody; antibody injected at 100 nM alone (Ab alone) or as 1:1 complex with trimeric CD154 (CD154 IC); binding level / capture level [F]
T1 construct: also called human FcγR3a allelic variant 158V

human FcγRIIIa (158F) = target: T2, human FcγRIIIa (158F) (human, UniProt P08637 17-208); test: SPR (Biacore T200, pH 7.4, 25 °C): His-tagged FcγR captured by anti-His antibody; antibody injected at 100 nM alone (Ab alone) or as 1:1 complex with trimeric CD154 (CD154 IC); binding level / capture level [E]
T2 construct: also called human FcγR3a allelic variant 158F

human FcγRIa = target: T3, human FcγRIa (human, UniProt P12314 16-292); test: SPR (Biacore T200, pH 7.4, 25 °C): His-tagged FcγR captured by anti-His antibody; antibody injected at 100 nM alone (Ab alone) or as 1:1 complex with trimeric CD154 (CD154 IC); binding level / capture level [A]
T3 construct: also called human FcγR1a
T3 sequence (P12314 16-292 limits assumed): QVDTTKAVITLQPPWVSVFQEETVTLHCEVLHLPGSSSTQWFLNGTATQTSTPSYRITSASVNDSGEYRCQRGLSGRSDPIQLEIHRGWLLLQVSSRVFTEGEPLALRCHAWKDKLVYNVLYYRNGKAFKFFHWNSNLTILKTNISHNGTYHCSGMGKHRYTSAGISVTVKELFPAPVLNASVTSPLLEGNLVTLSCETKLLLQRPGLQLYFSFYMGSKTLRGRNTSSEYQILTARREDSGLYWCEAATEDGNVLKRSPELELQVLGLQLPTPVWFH

mouse FcγRIV = target: T4, mouse FcγRIV (mouse, UniProt A0A0B4J1G0 21-203); test: SPR (Biacore T200, pH 7.4, 25 °C): His-tagged FcγR captured by anti-His antibody; antibody injected at 100 nM alone (Ab alone) or as 1:1 complex with trimeric CD154 (CD154 IC); binding level / capture level [D]
T4 construct: also called mFcγRIV; mouse FcγR4
T4 sequence: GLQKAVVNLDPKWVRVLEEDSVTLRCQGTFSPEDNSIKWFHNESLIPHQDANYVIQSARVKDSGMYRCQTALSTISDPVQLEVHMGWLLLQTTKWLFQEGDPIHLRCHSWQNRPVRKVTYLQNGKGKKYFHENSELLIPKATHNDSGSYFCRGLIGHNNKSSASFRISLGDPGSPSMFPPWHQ

human FcγRIIIb (NA2) = target: T5, human FcγRIIIb (NA2) (human, UniProt O75015 17-200); test: SPR (Biacore T200, pH 7.4, 25 °C): His-tagged FcγR captured by anti-His antibody; antibody injected at 100 nM alone (Ab alone) or as 1:1 complex with trimeric CD154 (CD154 IC); binding level / capture level [H]
T5 construct: also called human FcγR3b allelic variant NA2
T5 chain: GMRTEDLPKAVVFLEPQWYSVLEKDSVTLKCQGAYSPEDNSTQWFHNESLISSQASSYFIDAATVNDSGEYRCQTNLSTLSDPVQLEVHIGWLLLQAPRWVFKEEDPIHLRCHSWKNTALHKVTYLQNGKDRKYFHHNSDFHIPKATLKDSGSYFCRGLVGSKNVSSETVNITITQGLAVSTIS

human FcγRIIb = target: T6, human FcγRIIb (human, UniProt P31994 43-217); test: SPR (Biacore T200, pH 7.4, 25 °C): His-tagged FcγR captured by anti-His antibody; antibody injected at 100 nM alone (Ab alone) or as 1:1 complex with trimeric CD154 (CD154 IC); binding level / capture level [D]
T6 construct: also called human FcγR2b
T6 sequence: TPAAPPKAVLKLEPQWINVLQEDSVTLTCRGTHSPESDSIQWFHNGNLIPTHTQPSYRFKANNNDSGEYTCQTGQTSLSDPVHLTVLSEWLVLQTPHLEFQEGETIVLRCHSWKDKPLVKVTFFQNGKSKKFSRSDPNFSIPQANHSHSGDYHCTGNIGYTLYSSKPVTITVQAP

mouse FcγRIII = target: T7, mouse FcγRIII (mouse, UniProt P08508 31-215); test: SPR (Biacore T200, pH 7.4, 25 °C): His-tagged FcγR captured by anti-His antibody; antibody injected at 100 nM alone (Ab alone) or as 1:1 complex with trimeric CD154 (CD154 IC); binding level / capture level [C]
T7 construct: also called mFcγRIII; mouse FcγR3
T7 chain: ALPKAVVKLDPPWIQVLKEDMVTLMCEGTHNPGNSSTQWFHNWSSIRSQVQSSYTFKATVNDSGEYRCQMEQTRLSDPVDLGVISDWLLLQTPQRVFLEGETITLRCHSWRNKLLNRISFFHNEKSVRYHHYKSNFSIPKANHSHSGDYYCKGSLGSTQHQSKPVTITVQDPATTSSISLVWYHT

human C1q (Calbiochem) [1] = target: T8, human C1q (Calbiochem) (human, UniProt P02745 23-245; P02746 28-253; P02747 29-245); test: ELISA: antibody coated on the plate at the concentration shown, human C1q added, detected with HRP anti-human C1q, OD 450 nm
T8 sequence (P02745 23-245 limits assumed, chain 1 of 3): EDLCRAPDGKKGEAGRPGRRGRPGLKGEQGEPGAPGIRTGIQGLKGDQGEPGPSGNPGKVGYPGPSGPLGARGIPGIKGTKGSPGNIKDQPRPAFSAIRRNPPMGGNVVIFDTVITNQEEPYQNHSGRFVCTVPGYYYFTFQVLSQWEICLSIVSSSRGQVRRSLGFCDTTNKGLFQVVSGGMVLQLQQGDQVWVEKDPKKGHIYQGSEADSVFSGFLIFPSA
T8 sequence (P02746 28-253 limits assumed, chain 2 of 3): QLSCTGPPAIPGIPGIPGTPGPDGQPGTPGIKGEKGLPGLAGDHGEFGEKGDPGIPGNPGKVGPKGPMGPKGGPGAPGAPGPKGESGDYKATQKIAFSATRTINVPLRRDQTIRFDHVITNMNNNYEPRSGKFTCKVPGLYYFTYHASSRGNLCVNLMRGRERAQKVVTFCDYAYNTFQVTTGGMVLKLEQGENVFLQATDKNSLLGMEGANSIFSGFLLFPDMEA
T8 sequence (P02747 29-245 limits assumed, chain 3 of 3): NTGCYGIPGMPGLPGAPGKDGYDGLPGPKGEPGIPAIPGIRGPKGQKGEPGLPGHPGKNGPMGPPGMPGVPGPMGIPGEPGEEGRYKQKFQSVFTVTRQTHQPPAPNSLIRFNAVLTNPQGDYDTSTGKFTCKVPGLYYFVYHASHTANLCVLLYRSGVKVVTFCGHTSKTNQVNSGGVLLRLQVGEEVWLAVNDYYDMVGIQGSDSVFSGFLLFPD

mouse FcγRI = target: T9, mouse FcγRI (mouse, UniProt P26151 25-297); test: SPR (Biacore T200, pH 7.4, 25 °C): His-tagged FcγR captured by anti-His antibody; antibody injected at 100 nM alone (Ab alone) or as 1:1 complex with trimeric CD154 (CD154 IC); binding level / capture level [A]
T9 construct: also called mFcγRI; mouse FcγR1
T9 sequence: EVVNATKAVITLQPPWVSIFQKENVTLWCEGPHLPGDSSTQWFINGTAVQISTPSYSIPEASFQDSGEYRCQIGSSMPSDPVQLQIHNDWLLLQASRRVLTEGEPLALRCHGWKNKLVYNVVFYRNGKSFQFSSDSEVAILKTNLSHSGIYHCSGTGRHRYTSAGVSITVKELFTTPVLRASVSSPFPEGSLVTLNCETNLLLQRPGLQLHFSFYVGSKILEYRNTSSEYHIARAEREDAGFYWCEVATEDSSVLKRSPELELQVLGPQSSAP

human FcγRIIIb (NA1) = target: T10, human FcγRIIIb (NA1) (human, UniProt O75015 17-200); test: SPR (Biacore T200, pH 7.4, 25 °C): His-tagged FcγR captured by anti-His antibody; antibody injected at 100 nM alone (Ab alone) or as 1:1 complex with trimeric CD154 (CD154 IC); binding level / capture level [G]
T10 construct: also called human FcγR3b allelic variant NA1
T10 chain: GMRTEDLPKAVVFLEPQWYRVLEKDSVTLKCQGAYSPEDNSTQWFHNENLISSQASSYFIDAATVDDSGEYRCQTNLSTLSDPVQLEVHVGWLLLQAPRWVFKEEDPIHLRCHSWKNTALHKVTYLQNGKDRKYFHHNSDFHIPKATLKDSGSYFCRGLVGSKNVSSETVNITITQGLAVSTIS

mouse FcγRIIb = target: T11, mouse FcγRIIb (mouse, UniProt P08101 30-210); test: SPR (Biacore T200, pH 7.4, 25 °C): His-tagged FcγR captured by anti-His antibody; antibody injected at 100 nM alone (Ab alone) or as 1:1 complex with trimeric CD154 (CD154 IC); binding level / capture level [B]
T11 construct: also called mFcγRIIb; mouse FcγR2b
T11 sequence: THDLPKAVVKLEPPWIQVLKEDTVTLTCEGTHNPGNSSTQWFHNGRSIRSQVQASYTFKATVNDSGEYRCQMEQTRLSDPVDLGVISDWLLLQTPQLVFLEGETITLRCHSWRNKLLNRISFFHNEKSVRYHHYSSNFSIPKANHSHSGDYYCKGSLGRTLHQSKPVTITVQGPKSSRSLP

human C1q (Calbiochem) [2] = target: T8, human C1q (Calbiochem); test: ELISA: antibody coated on the plate at the concentration shown, human C1q added, detected with HRP anti-human C1q, OD 450 nm; remark: listed apart in the source

Binder | binding result (human FcγRIIIa (158V)) | binding result (human FcγRIIIa (158F)) | binding result (human FcγRIa) | binding result (mouse FcγRIV) | binding result (human FcγRIIIb (NA2)) | binding result (human FcγRIIb) | binding result (mouse FcγRIII) | EC50 (read off the curve) (human C1q (Calbiochem) [1]) [µg/mL] | binding result (mouse FcγRI) | binding result (human FcγRIIIb (NA1)) | binding result (mouse FcγRIIb) | EC50 (read off the curve) (human C1q (Calbiochem) [2]) [µg/mL]
Anti-CD154 antibody (SLAPH0336a/SLAPL0336a) with Fc variant LALA+EFT (SG1090) (antibody, human IgG1, kappa, L234A L235A) heavy: EVQLVESGGGSVKPGGSLKLSCAASGFTFSDHYMYWVRQTPEKRLEWVAIISGGGSYTSYPDSMKGRFTISRDNAKNILHLQMSSLKSEDTAMYYCTRESNGKPGFAYWGQGTLVTVSAASTKGPSVFPLAPSSKSTSGGTAALGCLVKDYFPEPVTVSWNSGALTSGVHTFPAVLQSSGLYSLSSVVTVPSSSLGTQTYICNVNHKPSNTKVDKRVEPKSCDKTHTCPPCPAPEAAGGPSVFLFPPKPKDTLMISRTPEVTCVVVDVEFEDPEVKFNWYVDGVEVHNAKTKPREEQYNSTYRVVSVLTVLHQDWLNGKEYKCKVTNKALPAPIEKTISKAKGQPREPQVYTLPPSREEMTKNQVSLTCLVKGFYPSDIAVEWESNGQPENNYKTTPPVLDSDGSFFLYSKLTVDKSRWQQGNVFSCSVMHEALHNHYTQKSLSLSP light: not shown | binds | no binding (tested: 100 nM) | binds | no binding (tested: 100 nM) | no binding (tested: 100 nM) | binds | binds | ~2 | no binding (tested: 100 nM) | no binding (tested: 100 nM) | – | –
EFT+AE (antibody, human IgG1, kappa, also called Anti-CD154 antibody (SLAPH0336a/SLAPL0336a) with Fc variant EFT+AE (SG1086); SG1086) heavy chain: EVQLVESGGGSVKPGGSLKLSCAASGFTFSDHYMYWVRQTPEKRLEWVAIISGGGSYTSYPDSMKGRFTISRDNAKNILHLQMSSLKSEDTAMYYCTRESNGKPGFAYWGQGTLVTVSAASTKGPSVFPLAPSSKSTSGGTAALGCLVKDYFPEPVTVSWNSGALTSGVHTFPAVLQSSGLYSLSSVVTVPSSSLGTQTYICNVNHKPSNTKVDKRVEPKSCDKTHTCPPCPAPELLAGPSVFLFPPKPKDTLMISRTPEVTCVVVDVEFEDPEVKFNWYVDGVEVHNAKTKPREEQYNSTYRVVSVLTVLHQDWLNGKEYKCKVTNKALPAPEEKTISKAKGQPREPQVYTLPPSREEMTKNQVSLTCLVKGFYPSDIAVEWESNGQPENNYKTTPPVLDSDGSFFLYSKLTVDKSRWQQGNVFSCSVMHEALHNHYTQKSLSLSP light chain: not shown | binds | binds | binds | binds | binds | binds | binds | – | binds | – | binds | –
Anti-CD154 antibody (SLAPH0336a/SLAPL0336a) with Fc variant LALA+EFT+AE (SG1089) (antibody, human IgG1, kappa) heavy: EVQLVESGGGSVKPGGSLKLSCAASGFTFSDHYMYWVRQTPEKRLEWVAIISGGGSYTSYPDSMKGRFTISRDNAKNILHLQMSSLKSEDTAMYYCTRESNGKPGFAYWGQGTLVTVSAASTKGPSVFPLAPSSKSTSGGTAALGCLVKDYFPEPVTVSWNSGALTSGVHTFPAVLQSSGLYSLSSVVTVPSSSLGTQTYICNVNHKPSNTKVDKRVEPKSCDKTHTCPPCPAPEAAAGPSVFLFPPKPKDTLMISRTPEVTCVVVDVEFEDPEVKFNWYVDGVEVHNAKTKPREEQYNSTYRVVSVLTVLHQDWLNGKEYKCKVTNKALPAPEEKTISKAKGQPREPQVYTLPPSREEMTKNQVSLTCLVKGFYPSDIAVEWESNGQPENNYKTTPPVLDSDGSFFLYSKLTVDKSRWQQGNVFSCSVMHEALHNHYTQKSLSLSP light: not shown | binds | – | binds | binds | – | binds | binds | ~3 | no binding (tested: 100 nM) | no binding (tested: 100 nM) | – | –
Anti-CD154 antibody (SLAPH0336a/SLAPL0336a) with Fc variant LALA+KWES (SG1088) (antibody, human IgG1, kappa, L234A L235A) heavy: EVQLVESGGGSVKPGGSLKLSCAASGFTFSDHYMYWVRQTPEKRLEWVAIISGGGSYTSYPDSMKGRFTISRDNAKNILHLQMSSLKSEDTAMYYCTRESNGKPGFAYWGQGTLVTVSAASTKGPSVFPLAPSSKSTSGGTAALGCLVKDYFPEPVTVSWNSGALTSGVHTFPAVLQSSGLYSLSSVVTVPSSSLGTQTYICNVNHKPSNTKVDKRVEPKSCDKTHTCPPCPAPEAAGGPSVFLFPPKPKDTLMISRTPEVTCVVVDVSHEDPEVKFNWYVDGVEVHNAKTKPREEQYNSTYRVVSVLTVLHQDWLNGKEYKCKVSNWALPAPISKTISKAKGQPREPQVYTLPPSREEMTKNQVSLTCLVKGFYPSDIAVEWESNGQPENNYKTTPPVLDSDGSFFLYSKLTVDKSRWQQGNVFSCSVMHEALHNHYTQKSLSLSP light: not shown | – | – | binds | – | – | – | – | ~2 | – | – | – | ~3
